Target: T1, Chordin VWC2 (UniProt Q9H2X0)
T1 chain: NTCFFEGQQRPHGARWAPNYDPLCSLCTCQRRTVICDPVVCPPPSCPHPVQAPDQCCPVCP
Experiment: SPR

B1: Crossveinless-2 (protein)
chain: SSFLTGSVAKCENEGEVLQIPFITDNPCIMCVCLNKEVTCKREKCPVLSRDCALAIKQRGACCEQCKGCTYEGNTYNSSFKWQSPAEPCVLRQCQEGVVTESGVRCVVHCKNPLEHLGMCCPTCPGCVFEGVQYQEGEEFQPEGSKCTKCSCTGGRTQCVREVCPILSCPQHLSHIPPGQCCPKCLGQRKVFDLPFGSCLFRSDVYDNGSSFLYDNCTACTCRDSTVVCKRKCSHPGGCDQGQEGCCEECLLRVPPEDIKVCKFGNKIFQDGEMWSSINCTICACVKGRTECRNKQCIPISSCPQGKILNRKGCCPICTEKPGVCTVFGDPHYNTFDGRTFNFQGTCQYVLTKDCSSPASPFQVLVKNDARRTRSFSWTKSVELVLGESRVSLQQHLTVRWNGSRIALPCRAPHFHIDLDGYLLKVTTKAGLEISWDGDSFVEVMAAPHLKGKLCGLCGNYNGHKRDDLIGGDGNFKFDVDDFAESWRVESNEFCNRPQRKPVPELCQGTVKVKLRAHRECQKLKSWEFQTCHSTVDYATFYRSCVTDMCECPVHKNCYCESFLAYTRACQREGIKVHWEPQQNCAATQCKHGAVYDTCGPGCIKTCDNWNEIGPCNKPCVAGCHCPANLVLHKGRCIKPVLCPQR
  Kd: 5 nM
